Source: the nanobody polyreactivity screen of Harvey et al. (2022)

Assay: yeast display, Sf9 membrane polyspecificity reagent, FACS + sequencing; frameworks hold sequencing errors
How it was run: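 Using colony PCR, genes from sorted yeast display clones were amplified, then sequenced on MiSeq at 2 × 250 and filtered by CDR length. The clones had been stained with 10% biotinylated, detergent-solubilized Sf9 membrane reagent for 1 hour at 4 °C and sorted by FACS into low and high (top ~1%) gates on anti-HA and streptavidin fluorescence. Polyreactivity labels come from the gate of origin.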

Sequence | polyreactivity (PSR sort gate)
QVQLVESGGGLVQAGGSLRLSCDASGSTIDWYAMGWYRQAPGKERELVAGITISAGRTYYADSVKGRFTISRDNAKNTVYLQMNSLKPEDTAVYYCAADVYYYLDMDHWGQGTQVTVSS | low polyreactivity
QFQLVESGGGLVQAGGSLRLSCAASGRIFYSYAIGWYRQAPGKERELVAAINWSSVRTYYADSVKGRFTISRDNAKNTVYLQMNSLKPEDTAVYYWNAYSTEWGRYDYWGQGTQVTVSS | high polyreactivity
QVQLVESGGGLVQAGGSLRLSCAASGFIFKWNAMGWYRPAPGKERELVAAISWHGGSTNYADSVKGRFTISRDNAKNTVYLQMNSLKQEDTAVYYCAKQQSPYYPSTLDYWGQGTQVTVSS | high polyreactivity
QVQLVESGGGLVQAGGSLRLSCAASGSIFVGYTMGWYRQAPGKERELVAAITSTGGSTSYADSVKGRFTISRDNAKNTVYLQMNSLKPEDTAVYYCAARGRGKTTSVAYYYWGQGTQVTVSS | high polyreactivity
QVHLVESGGGLVQAGGSLRLSCAASGLIFLYYAMGWYRQAPGKERELVAAISSGGSTYYADSVKGRFTISRDNAKNTVFLQMNSLTPEDTAVYYCAAADSYSSLEYWGQGTQVTVSS | high polyreactivity
QVQLVESGGGLVQAGGRLRLSCAASGRIFFYYAMGWYRQAPGKERELVAAITSGGNTNYADSVKGRFTISRDNAKNTVYLQMNSLKPEDTAVYYCNKDLYADGQYNYDYWGQGTQVTVSS | low polyreactivity
QVQLVESGGGLVQAGGSLRLSCAASVYGMGWYRQAPGKERELVAAISNGGTTYYADSVKGRFTISRDNAKNTVYLQMNSLKPEDTAVYYCARSYRSDGSRFGYWGQGTQVTVSS | low polyreactivity
QVQLVESGGGLVQAGGSLRLSCAASGSTFGGNAMGWYRQAPGKERELVAGITSSGTSTYYADSVKGRFTISRDNAKNTVYLQMNSLKPEDTAVYYCATDEADESYGFELFDYWGQGTQVTVSS | low polyreactivity
QVQLVESGGGLVQAGGSLRLSCAASGRIFLINAMGWSRQAPGKERELDATISRSGASTDYADSVKGRFTISRDNAKNTVYLQMNSLKPEDTAVYYCNAKVYKRRVVPYDYWGQGTQVTVSS | high polyreactivity
QVQLVESGGGLVQAGGSLRLSCAASGRTFGHYAMGWYRQAPGKERELVAAISCRGTSTYYADSVKGRFTISRDNAKNTVYLQMNSLKPEDTAVYYCAAVSVTSYRYDYWGQGTQVTVSS | high polyreactivity
QVQLVESGGGLLHAGGSLRLSCAASGSTFILYTMGWYRQAPGKERELVAAISRSSGGTYYADSVKGRFTISRDTAKNTVYLQMNSLKTEDTAVYYCAARSRGAKYDYWGQGTQVTVSS | high polyreactivity
QVQLVESGGGLVQAGGSLRLSCAASGSTFKINAMGWYRQAPGKERELVAAIRSRGGGTYYADSVKGRFTISRDNAKNTVYLQMNSLKPEDTAVYYCAATRRYHFDYWGQGTQVTVSS | high polyreactivity
QVQLVESGGGLVQAGGSLRLSCAASGRTLYNYTMGWYRQAPGKERELVATINFSGGSTYYADSVKGRFTISRDNAKNTVYLQMNSLKPEDTAVYYCNARGYHYAYKGAYLGDDYWGQGTQVTVSS | low polyreactivity
QVQLVESGGGLVQAGGRLRLSCAASGLTFPPNAMGWYRQAPGKERELVADSGGSTNYADSVKGRFTISRDNAKNTVYLQMNSLKPEDTAVYYCAAPPYSDGQWDDYWGQGTQVTVSS | low polyreactivity
QVQLVESGGGLVQAGGSLRLSCAASGSTFGKYTMGWYRQAPGKERELVAAISWSGGNTYYADSVKGRFTISRDNAKNTVYLQMNSLKPEDTAVYYCAAEREAYNTWFDYWGQGTQVTVSS | high polyreactivity
QVQLVESGGGLVQAGGSLRLSCAASGFIFYNYAMGWYRQAPGKERELVAAITSRGGSTYYADSVKGRFTISRDNAKNTVYLQMNSLKPEDTAVYYCAAVKVGDARFVRNDYWGQGTQVTVSS | high polyreactivity
QVQLVESGGGLVQAGGSLRLSCAASGSIFLAYAMGWYRQAPGKEREFVAAISFSDGSTYYADSVKGRFTISRDNAKNTVYLQMNSLKPEETAVYYCNKGASPDDYDYWGQGTQVTVSS | low polyreactivity
